Laboratory results published in article PMC9133112, “The structural basis of Cdc7-Dbf4 kinase dependent targeting and phosphorylation of the MCM2-7 double hexamer” (Nature Communications, 2022).

Molecular target: T1, MCM2-7 double hexamer (Saccharomyces cerevisiae, UniProt P29469 1-868; P24279 1-971; P30665 1-933; P29496 1-775; P53091 1-1017; P38132 …)
T1 construct: Mcm2, Saccharomyces cerevisiae, full length; Mcm3, Saccharomyces cerevisiae, full length; Mcm4, Saccharomyces cerevisiae, full length; Mcm5, Saccharomyces cerevisiae, full length; Mcm6, Saccharomyces cerevisiae, full length; Mcm7, Saccharomyces cerevisiae, full length; Two head-to-head MCM2-7 hexamers assembled on origin DNA; becomes (thio-)phosphorylated by DDK on Mcm2, Mcm4, Mcm6 (and Mcm7) …
Assay: cryo-EM structure; MD-(ATPγS): 250 nM DH released from beads by AluI + 750 nM DDK, 10 min 24 °C, buffer C with 3 mM ATPγS; GraFix glycerol gradient with glutaraldehyde; states I-III
Conditions: both partners purified

T1 sequence (P29469 whole entry, chain 1 of 4): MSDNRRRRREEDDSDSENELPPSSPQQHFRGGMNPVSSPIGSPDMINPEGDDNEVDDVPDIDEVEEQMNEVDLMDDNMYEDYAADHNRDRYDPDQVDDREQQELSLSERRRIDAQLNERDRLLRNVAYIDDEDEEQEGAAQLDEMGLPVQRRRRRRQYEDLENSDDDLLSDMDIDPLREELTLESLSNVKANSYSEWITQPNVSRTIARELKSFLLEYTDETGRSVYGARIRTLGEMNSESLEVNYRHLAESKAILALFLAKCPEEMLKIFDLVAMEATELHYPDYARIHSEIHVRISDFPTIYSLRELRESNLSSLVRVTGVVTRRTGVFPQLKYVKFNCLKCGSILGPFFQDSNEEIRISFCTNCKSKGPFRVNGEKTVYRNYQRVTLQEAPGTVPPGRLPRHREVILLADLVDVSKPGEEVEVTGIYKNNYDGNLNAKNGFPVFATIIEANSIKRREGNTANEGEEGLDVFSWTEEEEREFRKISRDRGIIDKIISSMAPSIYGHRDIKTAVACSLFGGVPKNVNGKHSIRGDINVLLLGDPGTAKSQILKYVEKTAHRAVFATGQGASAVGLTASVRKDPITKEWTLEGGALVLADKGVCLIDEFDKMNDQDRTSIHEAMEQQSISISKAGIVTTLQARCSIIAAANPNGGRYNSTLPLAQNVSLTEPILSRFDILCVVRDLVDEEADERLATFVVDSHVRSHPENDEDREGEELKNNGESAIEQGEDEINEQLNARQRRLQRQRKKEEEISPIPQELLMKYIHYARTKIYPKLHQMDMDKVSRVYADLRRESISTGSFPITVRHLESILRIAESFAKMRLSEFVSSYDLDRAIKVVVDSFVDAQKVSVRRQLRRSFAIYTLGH
T1 sequence (P24279 whole entry, chain 2 of 4): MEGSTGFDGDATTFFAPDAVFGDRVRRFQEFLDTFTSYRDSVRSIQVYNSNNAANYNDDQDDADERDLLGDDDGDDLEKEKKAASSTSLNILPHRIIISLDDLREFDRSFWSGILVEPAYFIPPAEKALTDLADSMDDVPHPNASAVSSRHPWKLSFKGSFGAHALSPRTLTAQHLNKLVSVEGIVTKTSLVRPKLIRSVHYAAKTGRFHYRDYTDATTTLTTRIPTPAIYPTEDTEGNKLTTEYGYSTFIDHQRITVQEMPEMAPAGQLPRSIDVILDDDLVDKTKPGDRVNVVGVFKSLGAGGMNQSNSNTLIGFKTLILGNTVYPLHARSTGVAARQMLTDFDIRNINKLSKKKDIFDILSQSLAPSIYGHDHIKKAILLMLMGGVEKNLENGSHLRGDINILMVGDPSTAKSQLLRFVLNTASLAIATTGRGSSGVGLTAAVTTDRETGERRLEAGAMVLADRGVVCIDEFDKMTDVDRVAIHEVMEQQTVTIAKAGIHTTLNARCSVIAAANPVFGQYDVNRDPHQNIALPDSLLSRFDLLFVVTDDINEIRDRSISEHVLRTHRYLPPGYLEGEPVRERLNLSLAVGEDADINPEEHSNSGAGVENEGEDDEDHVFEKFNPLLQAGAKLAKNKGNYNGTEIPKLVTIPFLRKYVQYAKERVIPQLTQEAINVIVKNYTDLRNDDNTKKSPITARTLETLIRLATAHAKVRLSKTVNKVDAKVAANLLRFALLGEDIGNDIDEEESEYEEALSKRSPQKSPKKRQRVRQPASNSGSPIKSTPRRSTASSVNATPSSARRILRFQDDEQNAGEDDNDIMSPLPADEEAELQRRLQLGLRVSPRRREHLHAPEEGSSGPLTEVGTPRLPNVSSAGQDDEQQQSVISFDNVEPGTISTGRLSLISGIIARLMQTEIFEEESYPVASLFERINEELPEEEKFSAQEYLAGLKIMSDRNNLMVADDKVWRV
T1 sequence (P29496 whole entry, chain 4 of 4): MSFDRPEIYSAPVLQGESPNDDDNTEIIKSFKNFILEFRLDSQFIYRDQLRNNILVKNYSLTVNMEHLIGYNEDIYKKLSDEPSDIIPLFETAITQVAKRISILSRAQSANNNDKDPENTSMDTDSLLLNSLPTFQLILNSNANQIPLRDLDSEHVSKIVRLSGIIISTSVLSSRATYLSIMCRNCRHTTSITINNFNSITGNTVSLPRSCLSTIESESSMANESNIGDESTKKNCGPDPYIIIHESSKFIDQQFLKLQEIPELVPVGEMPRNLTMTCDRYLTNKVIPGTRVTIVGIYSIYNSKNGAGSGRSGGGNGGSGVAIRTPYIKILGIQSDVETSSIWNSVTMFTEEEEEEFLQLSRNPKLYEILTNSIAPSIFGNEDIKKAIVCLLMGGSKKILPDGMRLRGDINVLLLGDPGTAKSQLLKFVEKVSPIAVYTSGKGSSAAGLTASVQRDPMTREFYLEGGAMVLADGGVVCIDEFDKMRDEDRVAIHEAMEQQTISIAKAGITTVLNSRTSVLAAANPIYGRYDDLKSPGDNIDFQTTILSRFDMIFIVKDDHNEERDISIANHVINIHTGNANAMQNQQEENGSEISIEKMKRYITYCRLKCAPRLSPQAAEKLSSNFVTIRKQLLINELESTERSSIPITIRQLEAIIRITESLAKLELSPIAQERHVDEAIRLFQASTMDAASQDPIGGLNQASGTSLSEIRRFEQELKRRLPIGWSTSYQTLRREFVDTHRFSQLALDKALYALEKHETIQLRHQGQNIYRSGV
T1 sequence (P53091 whole entry, chain 5 of 4): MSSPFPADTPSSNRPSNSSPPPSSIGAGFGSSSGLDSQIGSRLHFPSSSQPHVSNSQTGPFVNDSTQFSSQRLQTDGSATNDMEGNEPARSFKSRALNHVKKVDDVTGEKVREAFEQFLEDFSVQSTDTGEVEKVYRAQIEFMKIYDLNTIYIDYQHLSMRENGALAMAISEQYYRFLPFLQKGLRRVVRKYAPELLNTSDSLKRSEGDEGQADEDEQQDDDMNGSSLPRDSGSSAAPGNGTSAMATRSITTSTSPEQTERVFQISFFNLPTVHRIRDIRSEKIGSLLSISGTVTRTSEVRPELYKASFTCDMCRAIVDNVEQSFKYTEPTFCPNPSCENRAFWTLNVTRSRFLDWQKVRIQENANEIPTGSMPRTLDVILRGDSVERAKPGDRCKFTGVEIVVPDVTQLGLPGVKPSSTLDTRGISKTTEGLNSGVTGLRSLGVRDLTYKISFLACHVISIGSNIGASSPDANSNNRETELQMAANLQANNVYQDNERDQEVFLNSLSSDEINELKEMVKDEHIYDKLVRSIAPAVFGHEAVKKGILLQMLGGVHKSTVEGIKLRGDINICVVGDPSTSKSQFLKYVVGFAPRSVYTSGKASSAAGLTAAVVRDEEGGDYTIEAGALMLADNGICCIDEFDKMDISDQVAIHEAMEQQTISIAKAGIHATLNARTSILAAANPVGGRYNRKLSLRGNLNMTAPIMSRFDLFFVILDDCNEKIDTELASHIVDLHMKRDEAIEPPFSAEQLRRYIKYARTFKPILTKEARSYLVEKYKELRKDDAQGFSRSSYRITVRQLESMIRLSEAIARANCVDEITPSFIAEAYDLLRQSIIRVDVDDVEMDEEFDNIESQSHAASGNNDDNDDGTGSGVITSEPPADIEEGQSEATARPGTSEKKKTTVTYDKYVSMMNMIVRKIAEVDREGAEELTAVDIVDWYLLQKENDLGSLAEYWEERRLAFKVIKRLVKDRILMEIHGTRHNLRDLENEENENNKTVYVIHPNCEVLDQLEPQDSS

B1: Dbf4-dependent Cdc7 kinase (DDK), wild type (complex, Saccharomyces cerevisiae)
chain 1: MTSKTKNIDDIPPEIKEEMIQLYHDLPGIENEYKLIDKIGEGTFSSVYKAKDITGKITKKFASHFWNYGSNYVALKKIYVTSSPQRIYNELNLLYIMTGSSRVAPLCDAKRVRDQVIAVLPYYPHEEFRTFYRDLPIKGIKKYIWELLRALKFVHSKGIIHRDIKPTNFLFNLELGRGVLVDFGLAEAQMDYKSMISSQNDYDNYANTNHDGGYSMRNHEQFCPCIMRNQYSPNSHNQTPPMVTIQNGKVVHLNNVNGVDLTKGYPKNETRRIKRANRAGTRGFRAPEVLMKCGAQSTKIDIWSVGVILLSLLGRRFPMFQSLDDADSLLELCTIFGWKELRKCAALHGLGFEASGLIWDKPNGYSNGLKEFVYDLLNKECTIGTFPEYSVAFETFGFLQQELHDRMSIEPQLPDPKTNMDAVDAYELKKYQEEIWSDHYWCFQVLEQCFEMDPQKRSSAEDLLKTPFFNELNENTYLLDGESTDEDDVVSSSEADLLDKDVLLISE
chain 2: MVSPTKMIIRSPLKETDTNLKHNNGIAASTTAAGHLNVFSNDNNCNNNNTTESFPKKRSLERLELQQQQHLHEKKRARIERARSIEGAVQVSKGTGLKNVEPRVTPKELLEWQTNWKKIMKRDSRIYFDITDDVEMNTYNKSKMDKRRDLLKRGFLTLGAQITQFFDTTVTIVITRRSVENIYLLKDTDILSRAKKNYMKVWSYEKAARFLKNLDVDLDHLSKTKSASLAAPTLSNLLHNEKLYGPTDRDPRTKRDDIHYFKYPHVYLYDLWQTWAPIITLEWKPQELTNLDELPYPILKIGSFGRCPFIGDRNYDESSYKRVVKRYSRDKANKKYALQLRALFQYHADTLLNTSSVNDQTKNLIFIPHTCNDSTKSFKKWMQEKAKNFEKTELKKTDDSAVQDVRNEHADQTDEKNSILLNETETKEPPLKEEKENKQSIAEESNKYPQRKELAATPKLNHPVLATFARQETEEVPDDLCTLKTKSRQAFEIKASGAHQSNDVATSFGNGLGPTRASVMSKNMKSLSRLMVDRKLGVKQTNGNNKNYTATIATTAETSKENRHRLDFNALKKDEAPSKETGKDSAVHLETNRKPQNFPKVATKSVSADSKVHNDIKITTTESPTASKKSTSTNVTLHFNAQTAQTAQPVKKETVKNSGYCENCRVKYESLEQHIVSEKHLSFAENDLNFEAIDSLIENLRFQI
notes: Cdc7 serine/threonine kinase, Saccharomyces cerevisiae, full length; Dbf4 (dumbbell former 4), Saccharomyces cerevisiae, full length; An MBP tag was cleaved with PreScission Protease; Treated with lambda phosphatase during purification; autophosphorylates (thio-phosphorylates with ATPγS) in the assays; also called Cdc7-Dbf4; WT DDK; source: budding yeast cells, purified (amylose resin, lambda …)
stoichiometry N: 2 DDK per MCM2-7 double hexamer
